Results taken from patent publication US20200262877A1, “ION CHANNEL-BINDING PEPTIDES AND METHODS OF USE THEREOF” (priority 2017, published 2020).

Legend:
NR2B = biological target: T1, NR2B (Homo sapiens, UniProt Q13224); test: Ion channel panel (IonWorks Barracuda): NR2B; type: cell-based; conditions: 100% = no change, <100% = inhibition
T1 construct: host or cells: HEK293 or CHO
Method in brief: (§1)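 Peptides were tested in duplicate at final 20 μM and 200 nM, with concentration set by amino acid analysis, in HEPES-buffered saline. They were applied for at least 5 min to HEK293 or CHO cells transfected with each channel. Currents were expressed as % inhibition, 1-(Ipeptide/Icontrol)×100, or % activation, Ipeptide/Icontrol×100, against a channel-matched reference compound.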

TRPV1 = biological target: T2, TRPV1 (Homo sapiens, UniProt Q8NER1); test: Ion channel panel (IonWorks Barracuda): TRPV1; type: cell-based; conditions: 100% = no change, <100% = inhibition
T2 construct: host or cells: HEK293 or CHO
Method in brief: as §1

Nav1.7 = biological target: T3, Nav1.7 (Homo sapiens, UniProt Q15858); test: cell-based; type: cell-based; conditions: 100% = no change; for Activity of Nav1.7 with peptide, expressed as a percentage of the reference compound: peptide at 0.2 μM; for Activity of Nav1.7 with peptide (percentage of the reference compound): peptide at 20 μM
T3 construct: host or cells: HEK293 or CHO
T3 sequence (Q15858 whole entry): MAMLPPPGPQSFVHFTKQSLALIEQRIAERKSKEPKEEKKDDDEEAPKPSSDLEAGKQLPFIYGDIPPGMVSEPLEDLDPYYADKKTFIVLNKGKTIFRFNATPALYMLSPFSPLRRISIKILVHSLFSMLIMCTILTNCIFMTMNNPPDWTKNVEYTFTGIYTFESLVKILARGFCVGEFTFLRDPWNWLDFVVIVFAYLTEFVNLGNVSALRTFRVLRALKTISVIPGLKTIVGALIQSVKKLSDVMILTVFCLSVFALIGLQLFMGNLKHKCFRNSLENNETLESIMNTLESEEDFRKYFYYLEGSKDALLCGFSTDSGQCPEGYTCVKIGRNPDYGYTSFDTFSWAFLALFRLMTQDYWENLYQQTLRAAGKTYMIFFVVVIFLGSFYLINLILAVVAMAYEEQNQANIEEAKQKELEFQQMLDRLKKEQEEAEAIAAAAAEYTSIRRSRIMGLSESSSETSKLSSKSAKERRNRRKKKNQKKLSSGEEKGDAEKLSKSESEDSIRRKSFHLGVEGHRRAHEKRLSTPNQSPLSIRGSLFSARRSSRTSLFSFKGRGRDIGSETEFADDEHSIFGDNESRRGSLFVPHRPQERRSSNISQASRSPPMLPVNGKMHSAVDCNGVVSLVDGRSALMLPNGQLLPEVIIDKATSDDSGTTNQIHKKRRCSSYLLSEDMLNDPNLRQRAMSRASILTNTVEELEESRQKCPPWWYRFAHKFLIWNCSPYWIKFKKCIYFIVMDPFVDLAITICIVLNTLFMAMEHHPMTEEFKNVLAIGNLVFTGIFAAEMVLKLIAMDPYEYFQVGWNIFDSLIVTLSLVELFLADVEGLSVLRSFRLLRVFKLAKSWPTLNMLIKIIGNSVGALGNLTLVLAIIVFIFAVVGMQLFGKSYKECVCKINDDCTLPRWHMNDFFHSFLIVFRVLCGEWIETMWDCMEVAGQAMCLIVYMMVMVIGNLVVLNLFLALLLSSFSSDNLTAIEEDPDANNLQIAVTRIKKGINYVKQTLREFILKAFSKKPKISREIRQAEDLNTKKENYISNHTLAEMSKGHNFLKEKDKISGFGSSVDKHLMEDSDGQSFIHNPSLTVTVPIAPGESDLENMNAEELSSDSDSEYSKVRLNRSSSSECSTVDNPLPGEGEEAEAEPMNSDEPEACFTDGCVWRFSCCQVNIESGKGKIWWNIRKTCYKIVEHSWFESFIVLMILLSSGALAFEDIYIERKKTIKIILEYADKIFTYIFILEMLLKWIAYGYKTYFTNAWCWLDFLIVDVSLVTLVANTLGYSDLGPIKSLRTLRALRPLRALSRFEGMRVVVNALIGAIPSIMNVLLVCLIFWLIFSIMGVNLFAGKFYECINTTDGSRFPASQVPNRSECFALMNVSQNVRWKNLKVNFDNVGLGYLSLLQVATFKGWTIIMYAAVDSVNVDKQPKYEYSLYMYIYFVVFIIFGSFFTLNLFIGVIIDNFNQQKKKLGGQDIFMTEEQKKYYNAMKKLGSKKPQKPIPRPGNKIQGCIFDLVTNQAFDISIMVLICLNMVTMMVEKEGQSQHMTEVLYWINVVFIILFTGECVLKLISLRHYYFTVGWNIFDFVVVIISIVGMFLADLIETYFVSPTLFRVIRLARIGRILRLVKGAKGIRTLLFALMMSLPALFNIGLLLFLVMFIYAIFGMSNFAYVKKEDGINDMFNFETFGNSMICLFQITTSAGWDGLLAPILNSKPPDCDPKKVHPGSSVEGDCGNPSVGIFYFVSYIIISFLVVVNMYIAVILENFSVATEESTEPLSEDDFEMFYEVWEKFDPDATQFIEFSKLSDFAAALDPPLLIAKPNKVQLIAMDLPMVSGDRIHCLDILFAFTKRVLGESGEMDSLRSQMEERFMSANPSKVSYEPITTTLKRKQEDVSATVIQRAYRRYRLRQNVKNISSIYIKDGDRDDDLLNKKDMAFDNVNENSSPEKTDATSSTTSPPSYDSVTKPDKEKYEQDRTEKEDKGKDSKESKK

Cav2.2 = biological target: T4, Cav2.2 (Homo sapiens, UniProt Q00975); test: cell-based; conditions: 100% = no change, <100% = inhibition
T4 construct: host or cells: HEK293 or CHO
Method in brief: as §1

Kv2.1 = biological target: T5, Kv2.1 (Homo sapiens, UniProt Q14721); test: cell-based; conditions: 100% = no change, <100% = inhibition
T5 construct: host or cells: HEK293 or CHO
Method in brief: as §1

Cav2.1 = biological target: T6, Cav2.1 (Homo sapiens, UniProt O00555); test: cell-based; conditions: 100% = no change, <100% = inhibition
T6 construct: host or cells: HEK293 or CHO
Method in brief: as §1

hERG = hERG (Homo sapiens, UniProt Q12809); test: in vitro; conditions: 100% = no change, <100% = inhibition
Method in brief: as §1

Nav1.5 = Nav1.5 (Homo sapiens, UniProt Q14524); test: in vitro; conditions: 100% = no change; for Activity of Nav1.5 with peptide, expressed as a percentage of the reference compound: peptide at 0.2 μM; for Activity of Nav1.5 with peptide (percentage of the reference compound): peptide at 20 μM
Chain of Nav1.5 (Q14524 whole entry): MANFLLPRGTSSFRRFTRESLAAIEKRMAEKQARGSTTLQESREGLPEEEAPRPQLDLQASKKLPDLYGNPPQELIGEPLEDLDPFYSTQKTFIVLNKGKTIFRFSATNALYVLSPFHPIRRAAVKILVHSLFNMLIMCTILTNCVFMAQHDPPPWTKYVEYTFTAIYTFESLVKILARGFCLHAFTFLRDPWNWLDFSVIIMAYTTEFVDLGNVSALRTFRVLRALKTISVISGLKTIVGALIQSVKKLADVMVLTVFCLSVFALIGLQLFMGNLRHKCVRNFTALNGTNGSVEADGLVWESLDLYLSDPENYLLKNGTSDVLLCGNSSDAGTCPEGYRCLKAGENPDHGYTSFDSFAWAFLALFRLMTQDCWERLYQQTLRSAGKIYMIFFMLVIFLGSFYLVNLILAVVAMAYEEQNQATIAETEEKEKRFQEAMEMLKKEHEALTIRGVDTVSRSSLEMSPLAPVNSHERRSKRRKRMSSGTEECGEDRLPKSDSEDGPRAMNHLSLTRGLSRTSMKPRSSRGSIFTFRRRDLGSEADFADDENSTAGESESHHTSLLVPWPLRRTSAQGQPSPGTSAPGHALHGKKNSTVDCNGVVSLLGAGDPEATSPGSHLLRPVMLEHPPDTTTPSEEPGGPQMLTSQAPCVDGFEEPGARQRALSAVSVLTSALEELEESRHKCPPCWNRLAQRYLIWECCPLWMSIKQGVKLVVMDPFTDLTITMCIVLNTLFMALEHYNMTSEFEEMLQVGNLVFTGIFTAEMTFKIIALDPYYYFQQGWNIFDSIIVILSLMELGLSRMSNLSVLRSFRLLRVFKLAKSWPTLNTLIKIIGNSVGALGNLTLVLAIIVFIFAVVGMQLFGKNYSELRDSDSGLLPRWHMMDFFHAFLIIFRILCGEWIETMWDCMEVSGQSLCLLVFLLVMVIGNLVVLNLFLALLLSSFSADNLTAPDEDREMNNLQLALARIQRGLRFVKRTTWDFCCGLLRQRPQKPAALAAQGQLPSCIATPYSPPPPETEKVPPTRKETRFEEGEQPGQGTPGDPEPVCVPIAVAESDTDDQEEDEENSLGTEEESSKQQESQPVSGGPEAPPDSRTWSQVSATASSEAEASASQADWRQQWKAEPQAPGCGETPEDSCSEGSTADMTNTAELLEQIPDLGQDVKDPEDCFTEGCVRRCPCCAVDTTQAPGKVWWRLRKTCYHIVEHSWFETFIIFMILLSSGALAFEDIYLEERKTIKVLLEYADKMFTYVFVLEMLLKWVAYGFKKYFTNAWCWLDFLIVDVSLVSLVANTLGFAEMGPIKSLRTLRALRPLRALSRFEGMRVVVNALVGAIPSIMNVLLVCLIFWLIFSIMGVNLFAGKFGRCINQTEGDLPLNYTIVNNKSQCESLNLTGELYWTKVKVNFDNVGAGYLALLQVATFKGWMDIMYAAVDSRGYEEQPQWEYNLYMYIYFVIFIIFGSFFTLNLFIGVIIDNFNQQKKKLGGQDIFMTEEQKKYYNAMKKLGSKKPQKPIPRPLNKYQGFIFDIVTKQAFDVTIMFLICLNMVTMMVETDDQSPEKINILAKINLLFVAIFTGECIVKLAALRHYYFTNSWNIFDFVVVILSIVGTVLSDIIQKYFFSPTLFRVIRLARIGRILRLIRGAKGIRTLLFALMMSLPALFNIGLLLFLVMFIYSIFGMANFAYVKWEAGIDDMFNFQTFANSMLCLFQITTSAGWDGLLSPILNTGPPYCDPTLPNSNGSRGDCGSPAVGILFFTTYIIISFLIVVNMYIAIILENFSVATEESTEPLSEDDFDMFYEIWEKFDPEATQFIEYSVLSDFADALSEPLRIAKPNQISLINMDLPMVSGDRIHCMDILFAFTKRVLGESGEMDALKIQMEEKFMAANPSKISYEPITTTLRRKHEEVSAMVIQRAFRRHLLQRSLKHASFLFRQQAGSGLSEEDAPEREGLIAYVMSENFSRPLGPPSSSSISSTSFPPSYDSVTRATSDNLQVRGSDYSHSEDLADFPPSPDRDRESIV
Method in brief: as §1

5HT3a = biological target: T7, 5HT3a (Homo sapiens, UniProt P46098); test: Ion channel panel (IonWorks Barracuda): 5HT3a; type: cell-based
T7 construct: host or cells: HEK293 or CHO
T7 sequence (P46098 whole entry, looked up): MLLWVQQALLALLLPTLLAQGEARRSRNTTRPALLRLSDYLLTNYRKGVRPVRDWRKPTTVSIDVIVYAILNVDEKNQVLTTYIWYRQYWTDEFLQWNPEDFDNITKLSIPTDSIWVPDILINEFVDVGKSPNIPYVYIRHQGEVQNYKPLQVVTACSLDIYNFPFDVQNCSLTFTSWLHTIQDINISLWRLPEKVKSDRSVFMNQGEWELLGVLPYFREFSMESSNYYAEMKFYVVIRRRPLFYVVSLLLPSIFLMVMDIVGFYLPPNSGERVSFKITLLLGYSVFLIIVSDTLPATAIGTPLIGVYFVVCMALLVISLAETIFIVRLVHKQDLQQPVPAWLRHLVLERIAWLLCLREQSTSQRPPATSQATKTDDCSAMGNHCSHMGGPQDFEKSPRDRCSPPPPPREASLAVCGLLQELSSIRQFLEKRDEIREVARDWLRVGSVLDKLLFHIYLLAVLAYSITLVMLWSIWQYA
Method in brief: as §1

Kir2.1 = biological target: T8, Kir2.1 (Homo sapiens, UniProt P63252); test: Ion channel panel (IonWorks Barracuda): Kir2.1; type: cell-based; conditions: 100% = no change, <100% = inhibition
T8 construct: host or cells: HEK293 or CHO
Method in brief: as §1

GABA = test: Ion channel panel (IonWorks Barracuda): GABA; type: cell-based; conditions: 100% = no change, <100% = inhibition
Method in brief: as §1

TRPA1 = biological target: T9, TRPA1 (Homo sapiens, UniProt O75762); test: Ion channel panel (IonWorks Barracuda): TRPA1; type: cell-based; conditions: 100% = no change, <100% = inhibition
T9 construct: host or cells: HEK293 or CHO
Method in brief: as §1

α4β2 = biological target: T10, α4β2 (Homo sapiens, UniProt P17787+P43681); test: Ion channel panel (IonWorks Barracuda): α4β2; type: cell-based; conditions: 100% = no change, <100% = inhibition
T10 construct: host or cells: HEK293 or CHO
T10 sequence (P43681 29-627): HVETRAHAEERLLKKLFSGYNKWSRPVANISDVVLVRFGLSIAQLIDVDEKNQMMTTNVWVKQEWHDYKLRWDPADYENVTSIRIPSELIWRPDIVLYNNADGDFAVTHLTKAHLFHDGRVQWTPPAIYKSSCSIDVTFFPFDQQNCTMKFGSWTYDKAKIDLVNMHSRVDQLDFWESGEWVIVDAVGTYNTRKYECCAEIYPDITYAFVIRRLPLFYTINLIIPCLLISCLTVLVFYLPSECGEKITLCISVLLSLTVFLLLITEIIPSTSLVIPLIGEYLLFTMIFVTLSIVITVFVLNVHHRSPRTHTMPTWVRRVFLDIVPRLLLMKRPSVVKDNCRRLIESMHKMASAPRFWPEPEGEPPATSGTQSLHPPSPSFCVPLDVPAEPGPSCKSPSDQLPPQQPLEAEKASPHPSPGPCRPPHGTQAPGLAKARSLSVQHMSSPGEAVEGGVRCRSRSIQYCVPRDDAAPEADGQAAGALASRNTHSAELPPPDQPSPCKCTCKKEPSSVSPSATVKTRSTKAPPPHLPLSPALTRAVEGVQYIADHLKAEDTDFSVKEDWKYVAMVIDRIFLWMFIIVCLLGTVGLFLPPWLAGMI
T10 sequence (P17787 26-502): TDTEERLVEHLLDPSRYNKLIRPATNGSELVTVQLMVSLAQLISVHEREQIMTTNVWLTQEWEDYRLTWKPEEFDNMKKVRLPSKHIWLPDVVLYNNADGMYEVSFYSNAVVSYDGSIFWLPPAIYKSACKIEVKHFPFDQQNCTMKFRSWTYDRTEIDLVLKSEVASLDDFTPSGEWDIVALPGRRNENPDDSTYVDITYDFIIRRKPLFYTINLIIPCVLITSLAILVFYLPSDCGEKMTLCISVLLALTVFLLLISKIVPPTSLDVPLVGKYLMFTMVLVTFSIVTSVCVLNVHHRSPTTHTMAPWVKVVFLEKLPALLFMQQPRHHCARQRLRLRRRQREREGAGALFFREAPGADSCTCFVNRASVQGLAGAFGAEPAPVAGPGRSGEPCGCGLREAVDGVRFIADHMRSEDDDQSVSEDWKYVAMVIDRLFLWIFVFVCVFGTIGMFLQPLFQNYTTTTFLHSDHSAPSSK
Method in brief: as §1

Kv1.2 = biological target: T11, Kv1.2 (Homo sapiens, UniProt P16389); test: cell-based; type: cell-based; conditions: 100% = no change, <100% = inhibition
T11 construct: host or cells: HEK293 or CHO
Method in brief: as §1

Kv1.1 = biological target: T12, Kv1.1 (Homo sapiens, UniProt Q09470); test: cell-based; type: cell-based; conditions: 100% = no change, <100% = inhibition
T12 construct: host or cells: HEK293 or CHO
Method in brief: as §1

Kv1.3 = biological target: T13, Kv1.3 (Homo sapiens, UniProt P22001); test: cell-based; type: cell-based; conditions: 100% = no change, <100% = inhibition
T13 construct: host or cells: HEK293 or CHO
Method in brief: as §1

α3β4 = biological target: T14, α3β4 (Homo sapiens, UniProt P30926+P32297); test: Ion channel panel (IonWorks Barracuda): α3β4; type: cell-based; conditions: 100% = no change, <100% = inhibition
T14 construct: host or cells: HEK293 or CHO
Method in brief: as §1

NR2A = biological target: T15, NR2A (Homo sapiens, UniProt Q12879); test: Ion channel panel (IonWorks Barracuda): NR2A; type: cell-based; conditions: 100% = no change, <100% = inhibition
T15 construct: host or cells: HEK293 or CHO
Method in brief: as §1

[1] = first of two Nav1.7 columns (probably TP1)
[2] = second of two Nav1.7 columns (probably TP2)
[3] = first of two Nav1.5 columns (probably TP1)
[4] = second of two Nav1.5 columns (probably TP2)

19 (GSQFTDVKCTGSKQCWPVCKQMFGKPNGKCMNGKCRCYS) [compound 19]
Activity of NR2B with peptide, expressed as a percentage of the reference compound (NR2B; peptide at 0.2 μM): 117% | Activity of NR2B with peptide (percentage of the reference compound) (NR2B; peptide at 20 μM): 130% | Activity of TRPV1 with peptide, expressed as a percentage of the reference compound (TRPV1; peptide at 0.2 μM): 94% | Activity of TRPV1 with peptide (percentage of the reference compound) (TRPV1; peptide at 20 μM): 90% | Activity of Nav1.7 with peptide, expressed as a percentage of the reference compound (Nav1.7; [1]): 91% | Activity of Nav1.7 with peptide, expressed as a percentage of the reference compound (Nav1.7; [2]): 92% | Activity of Nav1.7 with peptide (percentage of the reference compound) (Nav1.7; [1]): 121% | Activity of Nav1.7 with peptide (percentage of the reference compound) (Nav1.7; [2]): 140% | Activity of Cav2.2 with peptide, expressed as a percentage of the reference compound (Cav2.2; peptide at 0.2 μM): 116% | Activity of Cav2.2 with peptide (percentage of the reference compound) (Cav2.2; peptide at 20 μM): 94% | Activity of Kv2.1 with peptide, expressed as a percentage of the reference compound (Kv2.1; peptide at 0.2 μM): 95% | Activity of Kv2.1 with peptide (percentage of the reference compound) (Kv2.1; peptide at 20 μM): 108% | Activity of Cav2.1 with peptide, expressed as a percentage of the reference compound (Cav2.1; peptide at 0.2 μM): 106% | Activity of Cav2.1 with peptide (percentage of the reference compound) (Cav2.1; peptide at 20 μM): 109% | Activity of hERG with peptide, expressed as a percentage of the reference compound (hERG; peptide at 0.2 μM): 98% | Activity of hERG with peptide (percentage of the reference compound) (hERG; peptide at 20 μM): 86% | Activity of Nav1.5 with peptide, expressed as a percentage of the reference compound (Nav1.5; [3]): 112% | Activity of Nav1.5 with peptide, expressed as a percentage of the reference compound (Nav1.5; [4]): 114% | Activity of Nav1.5 with peptide (percentage of the reference compound) (Nav1.5; [3]): 117% | Activity of Nav1.5 with peptide (percentage of the reference compound) (Nav1.5; [4]): 117% | Activity of 5HT3a with peptide (percentage of the reference compound) (5HT3a): 69% | Activity of 5HT3a with peptide, expressed as a percentage of the reference compound (5HT3a): 89% | Activity of Kir2.1 with peptide, expressed as a percentage of the reference compound (Kir2.1; peptide at 0.2 μM): 107% | Activity of Kir2.1 with peptide (percentage of the reference compound) (Kir2.1; peptide at 20 μM): 93% | Activity of GABA with peptide, expressed as a percentage of the reference compound (GABA; peptide at 0.2 μM): 93% | Activity of GABA with peptide (percentage of the reference compound) (GABA; peptide at 20 μM): 111% | Activity of TRPA1 with peptide, expressed as a percentage of the reference compound (TRPA1; peptide at 0.2 μM): 126% | Activity of TRPA1 with peptide (percentage of the reference compound) (TRPA1; peptide at 20 μM): 109% | Activity of a4b2 with peptide, expressed as a percentage of the reference compound (α4β2; peptide at 0.2 μM): 99% | Activity of a4b2 with peptide (percentage of the reference compound) (α4β2; peptide at 20 μM): 93% | Activity of Kv1.2 with peptide, expressed as a percentage of the reference compound (Kv1.2; peptide at 0.2 μM): 41% | Activity of Kv1.2 with peptide (percentage of the reference compound) (Kv1.2; peptide at 20 μM): 37% | Activity of Kv1.1 with peptide, expressed as a percentage of the reference compound (Kv1.1; peptide at 0.2 μM): 100% | Activity of Kv1.1 with peptide (percentage of the reference compound) (Kv1.1; peptide at 20 μM): 44% | Activity of Kv1.3 with peptide, expressed as a percentage of the reference compound (Kv1.3; peptide at 0.2 μM): 4% | Activity of Kv1.3 with peptide (percentage of the reference compound) (Kv1.3; peptide at 20 μM): −1% | Activity of a3b4 with peptide, expressed as a percentage of the reference compound (α3β4; peptide at 0.2 μM): 101% | Activity of a3b4 with peptide (percentage of the reference compound) (α3β4; peptide at 20 μM): 97% | Activity of NR2A with peptide, expressed as a percentage of the reference compound (NR2A; peptide at 0.2 μM): 90% | Activity of NR2A with peptide (percentage of the reference compound) (NR2A; peptide at 20 μM): 99%
